In the Immune Epitope Database (IEDB) one finds Kd data, which are given here for 23 sequences.

As a reminder, the Kd is the free concentration of one partner at which half of the binding sites on the other are occupied at equilibrium, for simple one-to-one binding.

Some targets named below: HLA-A*03:01; HLA-A*11:01; HLA-A*31:01; HLA-A*33:01; HLA-A*68:01.
What all share (experiment): IEDB peptide-MHC binding, purified MHC/competitive/radioactivity; filed as Kd, often an IC50 or EC50 that approximates it; ≥ and ≤ were set here for values at or beyond the usual limits of such assays
Where [1] appears, read: source organism: Vaccinia virus WR.
[2] abbreviates: source organism: SARS coronavirus Tor2.
The mark [3] stands for this setting: source organism: Lassa virus Josiah.
Setting [4] is: source organism: Vaccinia virus Copenhagen.
Where [5] appears, read: source organism: Mammarenavirus brazilense.
The mark [6] stands for this setting: source organism: Mammarenavirus juninense.

On to NVPERQLILR, for which the Kd with HLA-A*03:01 (setting [1]) was 18700 nM; with HLA-A*11:01 (setting [1]), 323 nM; in the assay with HLA-A*31:01 (setting [1]) it was 87.8 nM; with HLA-A*33:01 (setting [1]), 2.86 nM; with HLA-A*68:01 (setting [1]), 0.0657 nM.

As for LIWAYLSKK, the Kd in the assay with HLA-A*03:01 (setting [1]) is 21.4 nM; in the assay with HLA-A*11:01 (setting [1]) it was 101 nM; with HLA-A*31:01 (setting [1]), 931 nM; with HLA-A*33:01 (setting [1]), 4940 nM; with HLA-A*68:01 (setting [1]), 214 nM.

VAGTGVQFY: the Kd with HLA-A*03:01 (setting [1]) is 7270 nM; with HLA-A*11:01 (setting [1]) it was at least 26500 nM; in the assay with HLA-A*31:01 (setting [1]), at least 53900 nM; with HLA-A*33:01 (setting [1]) it was at least 77700 nM; with HLA-A*68:01 (setting [1]) it was at least 77700 nM.

Turning to TLNHVLALKY, the Kd was 168 nM in the assay with HLA-A*03:01 (setting [1]); 1150 nM with HLA-A*11:01 (setting [1]); at least 69100 nM in the assay with HLA-A*31:01 (setting [1]); at least 52700 nM with HLA-A*33:01 (setting [1]); 13200 nM with HLA-A*68:01 (setting [1]).

Regarding VSTCFKLMLK, the Kd with HLA-A*03:01 (setting [2]) came out at 112 nM; with HLA-A*11:01 (setting [2]), 15.3 nM; in the assay with HLA-A*31:01 (setting [2]), 806 nM; with HLA-A*33:01 (setting [2]), 5700 nM; in the assay with HLA-A*68:01 (setting [2]), 472 nM.

As for VQIGEYTFEK, the Kd with HLA-A*03:01 (setting [2]) was determined as 221 nM; in the assay with HLA-A*11:01 (setting [2]), 22 nM; in the assay with HLA-A*31:01 (setting [2]), 1660 nM; with HLA-A*33:01 (setting [2]), 11200 nM; with HLA-A*68:01 (setting [2]) it was 350 nM.

YLCGFIKQK: the Kd is 511 nM in the assay with HLA-A*03:01 (setting [2]); 1650 nM with HLA-A*11:01 (setting [2]); 3430 nM with HLA-A*31:01 (setting [2]); at least 46700 nM in the assay with HLA-A*33:01 (setting [2]); 6000 nM with HLA-A*68:01 (setting [2]).

Consider ILARNEEGR, for which the Kd in the assay with HLA-A*03:01 (setting [1]) was 16600 nM; with HLA-A*11:01 (setting [1]) it was at least 77900 nM; with HLA-A*31:01 (setting [1]), 4570 nM; in the assay with HLA-A*33:01 (setting [1]), 1050 nM; with HLA-A*68:01 (setting [1]), 87 nM.

Consider KTWMDIEGR, for which the Kd turned out to be 8460 nM in the assay with HLA-A*03:01 (setting [3]); 1130 nM with HLA-A*11:01 (setting [3]); 120 nM with HLA-A*31:01 (setting [3]); 1710 nM with HLA-A*33:01 (setting [3]); 1820 nM in the assay with HLA-A*68:01 (setting [3]).

For LTAVCMKCFK, the Kd worked out at 29.8 nM with HLA-A*03:01 (setting [1]); 7.88 nM in the assay with HLA-A*11:01 (setting [1]); 38.8 nM with HLA-A*31:01 (setting [1]); 2050 nM with HLA-A*33:01 (setting [1]); 3.9 nM with HLA-A*68:01 (setting [1]).

For HTTAFFNTCK, the Kd in the assay with HLA-A*03:01 (setting [1]) was determined as 183 nM; with HLA-A*11:01 (setting [1]) it was 1.46 nM; with HLA-A*31:01 (setting [1]), 113 nM; in the assay with HLA-A*33:01 (setting [1]) it was 14000 nM; with HLA-A*68:01 (setting [1]), 2.13 nM.

For the sequence EIINFTISMR, the Kd with HLA-A*03:01 (setting [1]) is 1610 nM; with HLA-A*11:01 (setting [1]) it was 2020 nM; with HLA-A*31:01 (setting [1]) it was 428 nM; with HLA-A*33:01 (setting [1]), 7.83 nM; with HLA-A*68:01 (setting [1]) it was 1.12 nM.

For DMSHLKVALY, the Kd in the assay with HLA-A*03:01 (setting [1]) was 1810 nM; with HLA-A*11:01 (setting [1]) it was 3950 nM; with HLA-A*31:01 (setting [1]) it was 768 nM; with HLA-A*33:01 (setting [1]), 14700 nM; with HLA-A*68:01 (setting [1]), 854 nM.

With YVEKEENMDK, the Kd in the assay with HLA-A*03:01 (setting [1]) was at least 70100 nM; with HLA-A*11:01 (setting [1]) it was 2170 nM; with HLA-A*31:01 (setting [1]), 1270 nM; with HLA-A*33:01 (setting [1]) it was at least 69100 nM; with HLA-A*68:01 (setting [1]), 3370 nM.

Consider KQMYRKFSR, for which the Kd with HLA-A*03:01 (setting [4]) was found to be 209 nM; in the assay with HLA-A*11:01 (setting [4]) it was 78.8 nM; with HLA-A*31:01 (setting [4]), 4.97 nM; with HLA-A*33:01 (setting [4]), 2130 nM; in the assay with HLA-A*68:01 (setting [4]), 1210 nM.

As for DMMLMIGNY, the Kd with HLA-A*03:01 (setting [1]) is at least 47700 nM; in the assay with HLA-A*11:01 (setting [1]), 12700 nM; in the assay with HLA-A*31:01 (setting [1]), 11000 nM; in the assay with HLA-A*33:01 (setting [1]) it was 3820 nM; with HLA-A*68:01 (setting [1]) it was 780 nM.

On to MVSVSDFRDY, for which the Kd was at least 70100 nM with HLA-A*03:01 (setting [1]); 17700 nM with HLA-A*11:01 (setting [1]); at least 70000 nM in the assay with HLA-A*31:01 (setting [1]); at least 70000 nM with HLA-A*33:01 (setting [1]); 3960 nM with HLA-A*68:01 (setting [1]).

For the sequence HQNSKKTTK, the Kd with HLA-A*03:01 (setting [2]) is 1100 nM; with HLA-A*11:01 (setting [2]), 2080 nM; with HLA-A*31:01 (setting [2]), 1980 nM; in the assay with HLA-A*33:01 (setting [2]), at least 77700 nM; with HLA-A*68:01 (setting [2]) it was at least 77700 nM.

In the case of SINKVYGRY, the equilibrium dissociation constant (Kd) in the assay with HLA-A*03:01 (setting [1]) was 526 nM; with HLA-A*11:01 (setting [1]), 195 nM; with HLA-A*31:01 (setting [1]), 140 nM; in the assay with HLA-A*33:01 (setting [1]), at least 77700 nM; in the assay with HLA-A*68:01 (setting [1]), 1990 nM.

YVNHTASGEH: the Kd was at least 70000 nM with HLA-A*03:01 (setting [5]); at least 69700 nM in the assay with HLA-A*11:01 (setting [5]); at least 70000 nM in the assay with HLA-A*31:01 (setting [5]); at least 69000 nM in the assay with HLA-A*33:01 (setting [5]); at least 21700 nM with HLA-A*68:01 (setting [5]).

IINNAVYTK: the Kd with HLA-A*03:01 (setting [2]) came out at 37.5 nM; with HLA-A*11:01 (setting [2]), 17.1 nM; in the assay with HLA-A*31:01 (setting [2]), 114 nM; in the assay with HLA-A*33:01 (setting [2]), 19500 nM; with HLA-A*68:01 (setting [2]), 484 nM.

For GKQYIHCFRK, the Kd in the assay with HLA-A*03:01 (setting [6]) is 2210 nM; with HLA-A*11:01 (setting [6]), 1510 nM; with HLA-A*31:01 (setting [6]), 3670 nM; with HLA-A*33:01 (setting [6]) it was at least 29500 nM; with HLA-A*68:01 (setting [6]), 1730 nM.

Consider MFMLIFNVK, for which the Kd with HLA-A*03:01 (setting [1]) was found to be 1650 nM; with HLA-A*11:01 (setting [1]), 587 nM; with HLA-A*31:01 (setting [1]), 125 nM; in the assay with HLA-A*33:01 (setting [1]), 4020 nM; in the assay with HLA-A*68:01 (setting [1]), 1340 nM.
